This passage reports stoichiometry N results from doi:10.1101/456046.

This assay deals with Photosystem II subunit S (PsbS) from Physcomitrella patens (Physcomitrella patens). In words: SDS-PAGE.

Regarding “Photosystem II subunit S (PsbS) from Physcomitrella patens (natural protein)”, the stoichiometry N turned out to be 2.

By stoichiometry N is commonly meant the number of molecules, sites or subunits per partner or assembly.
